Here are results for one substance from article PMC7502484.

This assay deals with human PTH1R in transiently transfected COS-7 cell membranes (human) (UniProt Q03431). Nature of the assay: radioligand binding.
Sequence of UniProt Q03431 (Q03431 27-593): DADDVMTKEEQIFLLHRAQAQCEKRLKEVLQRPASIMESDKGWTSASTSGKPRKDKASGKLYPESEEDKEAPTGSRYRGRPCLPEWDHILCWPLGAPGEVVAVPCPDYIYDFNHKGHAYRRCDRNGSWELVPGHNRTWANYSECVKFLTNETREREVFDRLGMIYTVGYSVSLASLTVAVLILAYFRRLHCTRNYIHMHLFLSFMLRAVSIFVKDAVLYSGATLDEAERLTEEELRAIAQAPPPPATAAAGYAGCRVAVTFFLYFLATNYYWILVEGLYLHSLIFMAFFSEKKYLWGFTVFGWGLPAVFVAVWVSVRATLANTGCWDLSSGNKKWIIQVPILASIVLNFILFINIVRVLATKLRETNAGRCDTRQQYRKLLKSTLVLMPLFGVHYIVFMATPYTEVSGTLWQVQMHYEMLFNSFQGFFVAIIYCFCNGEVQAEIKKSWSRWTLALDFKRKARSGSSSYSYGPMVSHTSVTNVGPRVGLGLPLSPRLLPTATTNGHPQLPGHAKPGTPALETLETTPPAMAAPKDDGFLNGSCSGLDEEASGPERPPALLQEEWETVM

The IC50 is the midpoint of a concentration-inhibition curve. Higher therefore signals a need for much substance. As to PTH(1–34)^H9A (peptide), the IC50 came to 13.7 nM.
